Data published in publication PMC8254758 (Structure (London, England : 1993), 2021).

Key:
[1] = target: full-length SPARC (SPARC_C1) and the SPARC FS-EC domains (SPARC_C2); experiment: fluorescence polarisation
[2] = target: rat NLGN2(+A) extracellular domain (Val43-His612, with splice insert SSA) (rat) (UniProt Q62888); experiment: SPR
[3] = target: T1, rat NLGN2(+A) extracellular domain (Val43-His612, with splice insert SSA) (rat, UniProt Q62888-1 43-612); experiment: SPR
[4] = target: T1, rat NLGN2(+A) extracellular domain …; experiment: fluorescence polarisation

T1 sequence (Q62888 43-612): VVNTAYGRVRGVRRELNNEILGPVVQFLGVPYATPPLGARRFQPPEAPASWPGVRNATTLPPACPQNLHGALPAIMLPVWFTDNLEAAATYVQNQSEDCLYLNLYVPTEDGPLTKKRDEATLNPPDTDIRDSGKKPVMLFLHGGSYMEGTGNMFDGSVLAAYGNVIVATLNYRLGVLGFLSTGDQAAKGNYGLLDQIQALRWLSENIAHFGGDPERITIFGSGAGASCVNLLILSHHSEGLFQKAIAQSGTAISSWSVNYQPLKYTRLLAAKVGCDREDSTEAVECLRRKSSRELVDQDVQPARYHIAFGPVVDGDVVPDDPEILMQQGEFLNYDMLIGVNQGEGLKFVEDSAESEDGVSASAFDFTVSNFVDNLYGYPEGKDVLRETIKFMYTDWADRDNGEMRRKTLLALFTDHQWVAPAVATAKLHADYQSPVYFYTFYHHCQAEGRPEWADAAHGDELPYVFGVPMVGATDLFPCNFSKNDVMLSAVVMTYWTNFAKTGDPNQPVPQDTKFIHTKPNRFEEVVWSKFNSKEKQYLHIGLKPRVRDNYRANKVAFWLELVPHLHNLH
Chain of rat NLGN2(+A) extracellular domain (Val43-His612, with splice insert SSA) (rat) (Q62888 43-612): as above

For “rat NLGN2(+A) extracellular domain (Val43-His612, with splice insert SSA) (from UniProt Q62888-1 43-612) (domain or fragment)”, which Kd [1] is on record?
The Kd was 37 to 96 nM.

With “bovine neurexin 1α L1L6 (M1-S1339, without splice inserts) (domain or fragment)” as the molecule, how does the Kd [2] read?
The Kd was 3.8 nM.

B1: hevin_C4 (L302-F664) (domain or fragment, human, UniProt Q14515 302-664, looked up)
chain: LEAISNHKETEEKTVSEALLMEPTDDGNTTPRNHGVDDDGDDDGDDGGTDGPRHSASDDYFIPSQAFLEAERAQSIAYHLKIEEQREKVHENENIGTTEPGEHQEAKKAENSSNEEETSSEGNMRVHAVDSCMSFQCKRGHICKADQQGKPHCVCQDPVTCPPTKPLDQVCGTDNQTYASSCHLFATKCRLEGTKKGHQLQLDYFGACKSIPTCTDFEVIQFPLRMRDWLKNILMQLYEANSEHAGYLNEKQRNKVKKIYLDEKRLLAGDHPIDLLLRDFKKNYHMYVYPVHWQFSELDQHPMDRVLTHSELAPLRASLVPMEHCITRFFEECDPNKDKHITLKEWGHCFGIKEEDIDENLLF
Does B1 bind [3]?
Result: binds

B2: human MDGA1 Ig1-Ig2 (MDGA1_C8, Y22-T237) (domain or fragment, UniProt Q8NFP4-1 22-237, looked up)
chain: YAPAQAQIVHAGQACVVKEDNISERVYTIREGDTLMLQCLVTGHPRPQVRWTKTAGSASDKFQETSVFNETLRIERIARTQGGRYYCKAENGVGVPAIKSIRVDVQYLDEPMLTVHQTVSDVRGNFYQEKTVFLRCTVNSNPPARFIWKRGSDTLSHSQDNGVDIYEPLYTQGETKVLKLKNLRPQDYASYTCQVSVRNVCGIPDKAITFRLTNTT
Does B2 bind [4]?
Result: binds

B3: MDGA1_C8 Mut4 (MDGA1 Ig1-Ig2 R105A, Y107A, R123A, F154A, R156A, Y187A) (domain or fragment, human, UniProt Q8NFP4-1 22-237, looked up)
chain: YAPAQAQIVHAGQACVVKEDNISERVYTIREGDTLMLQCLVTGHPRPQVRWTKTAGSASDKFQETSVFNETLRIERIARTQGGAYACKAENGVGVPAIKSIAVDVQYLDEPMLTVHQTVSDVRGNFYQEKTVALACTVNSNPPARFIWKRGSDTLSHSQDNGVDIAEPLYTQGETKVLKLKNLRPQDYASYTCQVSVRNVCGIPDKAITFRLTNTT
Does B3 bind [4]?
Result: binds
